Measured values taken from publication doi:10.1101/2024.04.30.591959, “Structural insights into human propionyl-CoA carboxylase (PCC) and 3-methylcrotonyl-CoA carboxylase (MCC)” (bioRxiv, 2024).

T1: human 3-methylcrotonyl-CoA carboxylase α subunit (human (endogenous in Expi 293F), UniProt Q96RQ3 42-725, biotin covalently linked to K681 (AMKM motif of the BCCP domain))
T1 construct: 3-methylcrotonyl-CoA carboxylase α subunit (MCCα), human, endogenous; holds the BC, BT and BCCP domains; Purified as part of the endogenous α6β6 MCC holoenzyme, in a mixture with the other biotin-dependent carboxylases; also called MCCα; α subunit of MCC; source: endogenous, Expi 293F cells, purified (Strep-Tactin XT resin, size-exclusion chromatography)
T1 sequence (looked up): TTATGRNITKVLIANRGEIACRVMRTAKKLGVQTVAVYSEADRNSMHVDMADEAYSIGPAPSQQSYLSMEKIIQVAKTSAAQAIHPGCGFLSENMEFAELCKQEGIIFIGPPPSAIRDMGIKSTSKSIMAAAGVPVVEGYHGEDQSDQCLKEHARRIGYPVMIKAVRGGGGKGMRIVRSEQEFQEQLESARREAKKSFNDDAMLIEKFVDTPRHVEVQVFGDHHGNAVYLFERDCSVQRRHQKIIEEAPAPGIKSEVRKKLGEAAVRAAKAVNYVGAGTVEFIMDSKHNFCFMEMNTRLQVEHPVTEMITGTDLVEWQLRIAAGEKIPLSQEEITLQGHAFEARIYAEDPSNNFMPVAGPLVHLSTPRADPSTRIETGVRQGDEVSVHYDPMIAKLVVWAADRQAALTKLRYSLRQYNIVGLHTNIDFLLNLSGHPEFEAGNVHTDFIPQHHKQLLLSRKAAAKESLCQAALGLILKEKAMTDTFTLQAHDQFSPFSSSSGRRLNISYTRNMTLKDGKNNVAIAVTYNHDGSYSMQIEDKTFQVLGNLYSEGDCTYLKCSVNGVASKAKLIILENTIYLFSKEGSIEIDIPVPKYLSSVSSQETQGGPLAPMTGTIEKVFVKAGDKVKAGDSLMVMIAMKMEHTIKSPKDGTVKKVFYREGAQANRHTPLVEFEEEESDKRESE

T2: human propionyl-CoA carboxylase α subunit (human (endogenous in Expi 293F), UniProt P05165 53-728, biotin covalently linked to K694 (AMKM motif of the BCCP domain))
T2 construct: Propionyl-CoA carboxylase α subunit (PCCα), human, endogenous; holds the BC, BT and BCCP domains; Purified as part of the endogenous α6β6 PCC holoenzyme, in a mixture with the other biotin-dependent carboxylases; also called PCCα; α subunit of PCC; source: endogenous, Expi 293F cells, purified (Strep-Tactin XT resin, size-exclusion chromatography)
T2 sequence (looked up): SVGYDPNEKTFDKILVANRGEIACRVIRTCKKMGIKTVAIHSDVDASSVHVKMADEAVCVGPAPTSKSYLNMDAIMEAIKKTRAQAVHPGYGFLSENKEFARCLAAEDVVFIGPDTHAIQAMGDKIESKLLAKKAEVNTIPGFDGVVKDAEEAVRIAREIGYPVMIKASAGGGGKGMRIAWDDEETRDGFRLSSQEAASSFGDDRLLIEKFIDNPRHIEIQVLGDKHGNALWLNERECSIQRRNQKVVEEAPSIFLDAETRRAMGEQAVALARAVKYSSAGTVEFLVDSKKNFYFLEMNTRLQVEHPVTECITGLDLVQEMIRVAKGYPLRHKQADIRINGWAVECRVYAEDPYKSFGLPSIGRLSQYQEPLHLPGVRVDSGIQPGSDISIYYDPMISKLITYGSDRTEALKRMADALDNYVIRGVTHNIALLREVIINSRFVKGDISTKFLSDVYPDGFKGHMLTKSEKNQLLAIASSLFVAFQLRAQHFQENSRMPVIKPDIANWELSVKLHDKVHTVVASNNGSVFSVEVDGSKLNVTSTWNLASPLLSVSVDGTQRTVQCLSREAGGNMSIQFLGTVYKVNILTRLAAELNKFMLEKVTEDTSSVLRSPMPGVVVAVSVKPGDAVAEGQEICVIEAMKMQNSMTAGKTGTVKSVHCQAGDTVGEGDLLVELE


Columns and labels:
Experiment in all cases: cryo-EM structure; endogenous holoenzymes co-purified from Expi 293F cells as a mixture of biotin-dependent carboxylases; HBS buffer (20 mM HEPES, pH 7.4, 150 mM NaCl); apo, or pre-incubated with 25 mM NaHCO3, 10 mM MgCl2 and 10 mM propionyl-CoA or acetyl-CoA, 10 mM ATP added before freezing
[1] = biological target: T1, human 3-methylcrotonyl-CoA carboxylase …; conditions: both partners purified
[2] = biological target: the molecule itself
[3] = biological target: T2, human propionyl-CoA carboxylase α …; conditions: both partners purified

binding result [1] | binding result [3] | Binder | stoichiometry N [2]
binds |  | human 3-methylcrotonyl-CoA carboxylase β subunit (natural protein, human (endogenous in Expi 293F), UniProt Q9HCC0 23-563, looked up, 3-methylcrotonyl-CoA carboxylase β subunit (MCCβ), human, endogenous; CT domain (CT-N and CT-C subdomains); Co-purified with the biotinylated α subunit as the endogenous α6β6 MCC holoenzyme; also called MCCβ; β subunit of MCC; source: endogenous, Expi 293F cells, purified (Strep-Tactin XT resin, size-exclusion chromatography)) YHGDSVASLGTQPDLGSALYQENYKQMKALVNQLHERVEHIKLGGGEKARALHISRGKLLPRERIDNLIDPGSPFLELSQFAGYQLYDNEEVPGGGIITGIGRVSGVECMIIANDATVKGGAYYPVTVKKQLRAQEIAMQNRLPCIYLVDSGGAYLPRQADVFPDRDHFGRTFYNQAIMSSKNIAQIAVVMGSCTAGGAYVPAMADENIIVRKQGTIFLAGPPLVKAATGEEVSAEDLGGADLHCRKSGVSDHWALDDHHALHLTRKVVRNLNYQKKLDVTIEPSEEPLFPADELYGIVGANLKRSFDVREVIARIVDGSRFTEFKAFYGDTLVTGFARIFGYPVGIVGNNGVLFSESAKKGTHFVQLCCQRNIPLLFLQNITGFMVGREYEAEGIAKDGAKMVAAVACAQVPKITLIIGGSYGAGNYGMCGRAYSPRFLYIWPNARISVMGGEQAANVLATITKDQRAREGKQFSSADEAALKEPIIKKFEEEGNPYYSSARVWDDGIIDPADTRLVLGLSFSAALNAPIEKTDFGIFRM | 6
 | binds | human propionyl-CoA carboxylase β subunit (natural protein, human (endogenous in Expi 293F), UniProt P05166 29-539, looked up, Propionyl-CoA carboxylase β subunit (PCCβ), human, endogenous; CT domain (CT-N and CT-C subdomains); Co-purified with the biotinylated α subunit as the endogenous α6β6 PCC holoenzyme; also called PCCβ; β subunit of PCC; source: endogenous, Expi 293F cells, purified (Strep-Tactin XT resin, size-exclusion chromatography)) CSQATSVNERIENKRRTALLGGGQRRIDAQHKRGKLTARERISLLLDPGSFVESDMFVEHRCADFGMAADKNKFPGDSVVTGRGRINGRLVYVFSQDFTVFGGSLSGAHAQKICKIMDQAITVGAPVIGLNDSGGARIQEGVESLAGYADIFLRNVTASGVIPQISLIMGPCAGGAVYSPALTDFTFMVKDTSYLFITGPDVVKSVTNEDVTQEELGGAKTHTTMSGVAHRAFENDVDALCNLRDFFNYLPLSSQDPAPVRECHDPSDRLVPELDTIVPLESTKAYNMVDIIHSVVDEREFFEIMPNYAKNIIVGFARMNGRTVGIVGNQPKVASGCLDINSSVKGARFVRFCDAFNIPLITFVDVPGFLPGTAQEYGGIIRHGAKLLYAFAEATVPKVTVITRKAYGGAYDVMSSKHLCGDTNYAWPTAEIAVMGAKGAVEIIFKGHENVEAAQAEYIEKFANPFPAAVRGFVDDIIQPSSTRARICCDLDVLASKKVQRPWRKHANIPL | 
